Measured values reported in patent publication US11674128.

Target: mini-SaCas9-3 with four tandem repeats of SpyTag fused to its C-terminal (Streptococcus pyogenes)
Assay: cell-based or functional assay

In the case of SpyCatcher:VPR, the expression of the enhanced blue fluorescent protein 2 (EBFP2) reporter gene compared to the negative control is reported as 100 fold.
